Measured values from article PMC8264776.

Target: T1, OsbHLH148 (bHLH148-6xHis) (Oryza sativa) (UniProt Q75KV9)
T1 sequence: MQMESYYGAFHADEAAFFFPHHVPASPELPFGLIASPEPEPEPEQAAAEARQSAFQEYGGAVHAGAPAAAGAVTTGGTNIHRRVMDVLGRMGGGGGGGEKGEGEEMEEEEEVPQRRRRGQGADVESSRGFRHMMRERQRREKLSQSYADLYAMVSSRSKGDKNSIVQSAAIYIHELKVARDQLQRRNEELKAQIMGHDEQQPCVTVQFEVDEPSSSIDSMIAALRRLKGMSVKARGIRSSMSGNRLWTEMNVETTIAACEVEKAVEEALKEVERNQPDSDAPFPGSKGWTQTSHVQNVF
Test: EMSA
Conditions: 10 mM Tris pH 7.5, 50 mM KCl, 1 mM DTT, 2.5% glycerol, 5 mM MgCl (so in the source), 0.05% NP-40, 50 ng/ul poly(dI-dC); 20 min room temperature; 5% native PAGE

AAATAAATAAGACAGACGATTAAAATTAGATACGTAAATCATGGCGGCGTTTAAAATGGGATGGATTGAGTAGTACACTGTACCAGCGTACCCTTTTGTACTCATAGGAAGACTTCGACATTTTCAAACACTTGAGGACAACTTTCCAATTCAATAACAATACTACTCCACACGTGGCTGAAATGGCTGAAAAAGTTCCA (double strand) [OsRAP2.6 promoter fragment]
binding: binds
